Publication PMC4041364

T1: Granzyme A (GzmA) (human, UniProt P12544 29-262)
T1 sequence: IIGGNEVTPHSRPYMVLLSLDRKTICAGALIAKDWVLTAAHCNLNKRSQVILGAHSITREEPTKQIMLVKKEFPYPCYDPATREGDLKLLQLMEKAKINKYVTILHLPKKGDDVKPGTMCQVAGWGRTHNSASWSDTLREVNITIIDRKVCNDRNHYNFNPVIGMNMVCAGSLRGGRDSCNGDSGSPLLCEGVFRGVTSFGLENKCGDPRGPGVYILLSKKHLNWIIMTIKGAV

T2: Cathepsin G (CATG) (human, UniProt P08311 21-244)
T2 sequence: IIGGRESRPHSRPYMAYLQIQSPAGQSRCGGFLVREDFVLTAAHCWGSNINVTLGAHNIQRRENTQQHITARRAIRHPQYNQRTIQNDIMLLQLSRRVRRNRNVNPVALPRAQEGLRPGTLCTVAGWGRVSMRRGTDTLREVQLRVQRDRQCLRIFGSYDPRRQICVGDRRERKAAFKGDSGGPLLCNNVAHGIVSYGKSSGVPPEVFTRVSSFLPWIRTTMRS

B1: AU RNA (ssRNA)
RNA: CCCAAGCUUAUUUAUUUAUUUAUUGCAGGUC
B2: BB94 ssDNA (ssDNA)
DNA: TCTGTGAGTTGAACGCACACATCACAAAGGAG
B3: BB94 dsDNA (dsDNA)
DNA 1: B2 DNA
DNA 2: CTCCTTTGTGATGTGTGCGTTCAACTCACAGA
B4: BB94 RNA (ssRNA)
RNA: UCUGUGAGUUGAACGCACACAUCACAAAGGA
B5: rU(30) (ssRNA)
RNA: UUUUUUUUUUUUUUUUUUUUUUUUUUUUUU
B6: dT(30) (ssDNA)
DNA: TTTTTTTTTTTTTTTTTTTTTTTTTTTTTT
B7: Oligo(dT)25 beads (ssDNA)
DNA: TTTTTTTTTTTTTTTTTTTTTTTTT

Assays:
Granzyme B (GzmB) [1] = target: T3, Granzyme B (GzmB) (human, UniProt P10144 21-247); experiment: fluorescence polarization
T3 sequence (P10144 21-247): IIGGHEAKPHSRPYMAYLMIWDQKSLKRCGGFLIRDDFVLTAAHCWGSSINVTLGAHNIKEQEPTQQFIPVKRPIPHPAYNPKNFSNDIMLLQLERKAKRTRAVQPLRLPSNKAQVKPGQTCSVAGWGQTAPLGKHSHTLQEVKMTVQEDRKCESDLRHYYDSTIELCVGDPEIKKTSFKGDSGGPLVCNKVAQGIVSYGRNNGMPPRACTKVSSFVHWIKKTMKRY

Granzyme A (GzmA) [2] = target: T1, Granzyme A (GzmA); experiment: fluorescence polarization
Cathepsin G (CATG) [3] = target: T2, Cathepsin G (CATG); experiment: fluorescence polarization
Neutrophil elastase (NE) [4] = target: T4, Neutrophil elastase (NE) (human, UniProt P08246 30-267); experiment: fluorescence polarization
T4 sequence (P08246 30-267): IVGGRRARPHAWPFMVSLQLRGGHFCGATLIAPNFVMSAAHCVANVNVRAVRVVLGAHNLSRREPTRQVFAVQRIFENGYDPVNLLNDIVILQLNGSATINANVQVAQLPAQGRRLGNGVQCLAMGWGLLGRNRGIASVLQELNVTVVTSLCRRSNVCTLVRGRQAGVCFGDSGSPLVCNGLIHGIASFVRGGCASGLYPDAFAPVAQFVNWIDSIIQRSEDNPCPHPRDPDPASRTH

HuR (human antigen R) = HuR (human antigen R) (UniProt Q15717 1-326); experiment: fluorescence polarization
Sequence of HuR (human antigen R) (Q15717 whole entry): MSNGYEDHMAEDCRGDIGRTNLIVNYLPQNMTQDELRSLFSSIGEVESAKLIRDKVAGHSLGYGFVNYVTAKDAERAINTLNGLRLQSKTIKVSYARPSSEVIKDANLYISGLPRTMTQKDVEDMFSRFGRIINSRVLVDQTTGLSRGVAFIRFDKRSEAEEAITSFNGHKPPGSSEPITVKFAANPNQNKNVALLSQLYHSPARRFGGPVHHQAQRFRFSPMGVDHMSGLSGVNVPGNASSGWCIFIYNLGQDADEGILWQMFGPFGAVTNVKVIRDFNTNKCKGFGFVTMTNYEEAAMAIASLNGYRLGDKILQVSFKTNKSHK

Histone H1 = Histone H1 (UniProt P07305 1-194); experiment: fluorescence polarization
Sequence of Histone H1 (P07305 whole entry): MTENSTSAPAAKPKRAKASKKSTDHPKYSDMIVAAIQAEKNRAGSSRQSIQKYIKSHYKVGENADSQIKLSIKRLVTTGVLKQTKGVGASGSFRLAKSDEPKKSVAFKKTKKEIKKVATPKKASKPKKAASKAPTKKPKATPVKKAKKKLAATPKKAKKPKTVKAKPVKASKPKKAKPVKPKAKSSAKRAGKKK

Pancreatic elastase (PE) = Pancreatic elastase (PE) (porcine, UniProt P00772 27-266); experiment: pull-down
Sequence of Pancreatic elastase (PE) (P00772 27-266): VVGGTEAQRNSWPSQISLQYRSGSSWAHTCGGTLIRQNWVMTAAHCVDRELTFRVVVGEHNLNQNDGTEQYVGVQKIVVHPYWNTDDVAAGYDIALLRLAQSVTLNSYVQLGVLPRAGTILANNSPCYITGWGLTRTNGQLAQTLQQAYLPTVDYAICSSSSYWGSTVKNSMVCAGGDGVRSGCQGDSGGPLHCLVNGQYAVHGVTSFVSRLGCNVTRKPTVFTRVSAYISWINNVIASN

Granzyme B (GzmB) [5] = target: T3, Granzyme B (GzmB); experiment: pull-down
Granzyme A (GzmA) [6] = target: T1, Granzyme A (GzmA); experiment: pull-down
Cathepsin G (CATG) [7] = target: T2, Cathepsin G (CATG); experiment: pull-down
Neutrophil elastase (NE) [8] = target: T4, Neutrophil elastase (NE); experiment: pull-down

Binder	Kd (Granzyme B (GzmB) [1])	Kd (Granzyme A (GzmA) [2])	Kd (Cathepsin G (CATG) [3])	Kd (Neutrophil elastase (NE) [4])	Kd (HuR (human antigen R))	Kd (Histone H1)	binding result (Pancreatic elastase (PE))	binding result (Granzyme B (GzmB) [5])	binding result (Granzyme A (GzmA) [6])	binding result (Cathepsin G (CATG) [7])	binding result (Neutrophil elastase (NE) [8])
B1	651 nM	401 nM	165 nM	602 nM	492 nM	–	–	–	–	–	–
B2	35 nM	122 nM	22 nM	272 nM	–	10 nM	–	–	–	–	–
B3	161 nM	120 nM	35 nM	607 nM	–	9 nM	–	–	–	–	–
B4	480 nM	1600 nM	–	–	4800 nM	–	–	–	–	–	–
B5	159 nM	232 nM	–	–	121 nM	–	–	–	–	–	–
B6	45 nM	48 nM	–	–	–	–	–	–	–	–	–
B7	–	–	–	–	–	–	no binding	binds	binds	binds	binds
